# Measured values from article PMC12985673, “Weaker neuroligin 2–neurexin β1 interaction tethers membranes and recruits gephyrin at membrane junctions through clustering” (Science Advances, 2026).
# Molecular target: the molecule itself
# Test: cryo-EM structure; full-length NL2 alone; 20 mM Hepes-Na pH 7.5, 150 mM NaCl, 1 mM MgCl2, 0.5 mM CaCl2, 0.06% digitonin, brain polar lipid extract; only the ECD resolved
protein,measurement,value
"full-length neuroligin 2 (NL2), mouse, without the splice insert at site A (receptor, UniProt Q69ZK9 15-836, looked up, N-glycans, Neuroligin 2, mouse, amplified from pNICE-NL2(−); lacks the splice insert at site A (missing G153-T169 in UniProt Q69ZK9); its own signal peptide was replaced with that of NL1 followed by an HA tag; PreScission site before the C-terminal EGFP; S1A; also called NL2 WT; wild-type NL2; source: HEK293T, BacMam virus, purified (GFP-nanobody resin, eluted by PPX digestion, SEC); not shown: EGFP, …) QRGGGGPGGGAPGGPGLGLGSLGEERFPVVNTAYGRVRGVRRELNNEILGPVVQFLGVPYATPPLGARRFQPPEAPASWPGVRNATTLPPACPQNLHGALPAIMLPVWFTDNLEAAATYVQNQSEDCLYLNLYVPTEDDIRDSGKKPVMLFLHGGSYMEGTGNMFDGSVLAAYGNVIVVTLNYRLGVLGFLSTGDQAAKGNYGLLDQIQALRWLSENIAHFGGDPERITIFGSGAGASCVNLLILSHHSEGLFQKAIAQSGTAISSWSVNYQPLKYTRLLAAKVGCDREDSTEAVECLRRKSSRELVDQDVQPARYHIAFGPVVDGDVVPDDPEILMQQGEFLNYDMLIGVNQGEGLKFVEDSAESEDGVSASAFDFTVSNFVDNLYGYPEGKDVLRETIKFMYTDWADRDNGEMRRKTLLALFTDHQWVAPAVATAKLHADYQSPVYFYTFYHHCQAEGRPEWADAAHGDELPYVFGVPMVGATDLFPCNFSKNDVMLSAVVMTYWTNFAKTGDPNQPVPQDTKFIHTKPNRFEEVVWSKFNSKEKQYLHIGLKPRVRDNYRANKVAFWLELVPHLHNLHTELFTTTTRLPPYATRWPPRTPGPGTSGTRRPPPPATLPPESDIDLGPRAYDRFPGDSRDYSTELSVTVAVGASLLFLNILAFAALYYKRDRRQELRCRRLSPPGGSGSGVPGGGPLLPTAGRELPPEEELVSLQLKRGGGVGADPAEALRPACPPDYTLALRRAPDDVPLLAPGALTLLPSGLGPPPPPPPPSLHPFGPFPPPPPTATSHNNTLPHPHSTTRV",stoichiometry N,2
